Earlier results in article PMC12694644.

Molecular target: IL-23 p19 (Homo sapiens) (UniProt Q9NPF7)
Sequence (Q9NPF7 20-189): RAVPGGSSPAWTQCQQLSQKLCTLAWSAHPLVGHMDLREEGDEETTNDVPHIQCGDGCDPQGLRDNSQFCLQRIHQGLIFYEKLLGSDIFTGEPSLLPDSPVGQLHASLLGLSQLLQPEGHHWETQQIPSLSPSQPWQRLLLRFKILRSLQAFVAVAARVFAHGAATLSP

Kd: 3.3 pM
Substance: Guselkumab
